T1: recombinant soluble human TREM2 protein (human TREM2 ECD-FlagHis) (human, UniProt Q9NZC2 19-174)
T1 sequence: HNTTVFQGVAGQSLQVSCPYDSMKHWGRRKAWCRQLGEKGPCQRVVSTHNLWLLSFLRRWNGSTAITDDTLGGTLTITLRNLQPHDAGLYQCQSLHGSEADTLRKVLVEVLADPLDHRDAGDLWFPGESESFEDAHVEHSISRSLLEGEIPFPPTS

T2: recombinant soluble cynomolgus TREM2 protein (cynomolgus TREM2 extracellular domain coupled to a Flag/His tag) (cynomolgus, UniProt A0A2K5UY34 49-204)
T2 construct: extracellular domain; also called Cyno TREM2
T2 sequence: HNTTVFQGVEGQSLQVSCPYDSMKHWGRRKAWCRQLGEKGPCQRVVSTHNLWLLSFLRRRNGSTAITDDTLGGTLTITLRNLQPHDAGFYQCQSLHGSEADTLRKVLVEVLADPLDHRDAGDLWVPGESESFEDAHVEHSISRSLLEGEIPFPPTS

T3: soluble human TREM2 protein (TREM2 ECD-huIgG1 Fc fusion protein) (human, UniProt Q9NZC2 19-174, biotinylated)
T3 construct: also called biotinylated soluble human TREM2 protein
T3 sequence: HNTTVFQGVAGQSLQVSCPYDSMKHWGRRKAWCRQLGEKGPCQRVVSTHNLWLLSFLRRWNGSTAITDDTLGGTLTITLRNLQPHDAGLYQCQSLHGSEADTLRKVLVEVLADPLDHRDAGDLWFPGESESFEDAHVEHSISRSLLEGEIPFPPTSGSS

T4: human TREM2 on cells (human, UniProt Q9NZC2 19-230)
T4 sequence: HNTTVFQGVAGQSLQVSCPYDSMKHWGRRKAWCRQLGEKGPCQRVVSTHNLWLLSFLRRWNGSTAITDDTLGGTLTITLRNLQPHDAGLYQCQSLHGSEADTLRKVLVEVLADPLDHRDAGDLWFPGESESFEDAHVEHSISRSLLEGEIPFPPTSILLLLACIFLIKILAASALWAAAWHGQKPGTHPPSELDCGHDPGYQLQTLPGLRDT


Legend:
[1] = molecular target: T1, recombinant soluble human TREM2 protein …; assay: Octet BLI binning; competitor: load Ab 10E3
Experimental: (§1) Each of sixteen different anti-TREM2 antibodies produced from hybridomas were quantitated and loaded onto one of the anti-human Fc sensors at 5 μg/mL for 2 minutes (“Load Antibody”). The sensor was then blocked with 100 μg/mL of an irrelevant human IgG2 antibody for 5 minutes. […] Next, each of the sixteen different anti-TREM2 antibodies (“Sandwich Antibody”) was added to the sensor at 5 μg/mL and allowed to bind for 5 minutes. All assay buffers contained 10 mM Tris (pH 7.6), 0.1% Triton X-100, 150 mM NaCl, 1 mM CaCl₂, and 1 mg/mL BSA. The assay was conducted at 25° C. Experimental kinetic results were fit to a 1:1 binding model.
(§2) However, if addition of the sandwich antibody produces a binding event, then the sandwich antibody binds to a different epitope on human TREM2 than the load antibody and the two antibodies are categorized into different epitope bins.

[2] = molecular target: T1, recombinant soluble human TREM2 protein …; assay: Octet BLI binning; competitor: load Ab 26F2
Experimental: as §1, §2

[3] = molecular target: T1, recombinant soluble human TREM2 protein …; assay: Octet BLI binning; competitor: load Ab 4G10
Experimental: as §1, §2

[4] = molecular target: T1, recombinant soluble human TREM2 protein …; assay: Octet BLI, antibody on anti-human Fc sensor, 25 C
Experimental: (§3) To quantitate the binding affinity of agonist antibodies for human TREM2, association and dissociation rate constants as well as the equilibrium dissociation constant were determined using anti-human Fc (Kinetic) sensors on an Octet® HTX instrument (Pall ForteBio). Agonist anti-TREM2 antibodies were made up in DMEM null media, 250 μL at 10 μg/mL. The, 250 uL of assay buffer (10 mM Tris (pH 7.6), 0.1% Triton X-100, 150 mM NaCl, 1mM CaCl₂, and 1 mg/mL BSA) was added to the antibody solutions to a final volume of 500 μL and final antibody concentration of 5 μg/mL. The anti-human Fc sensor was pre-incubated in 200 μL of the assay buffer for a minimum of 10 minutes. The sensor was then regenerated for 5 seconds in 10 mM glycine pH 1.5. Test agonist anti-TREM2 antibodies were loaded onto the sensor for 2 minutes, and baseline measurements were taken for 2 minutes. […] The recombinant TREM2 proteins were allowed to associate with the antibody-loaded sensor for 10 minutes, and then dissociation was measured for 10 minutes. The assay was conducted at 25° C. Experimental kinetic results were globally fit to a 1:1 binding model in order to determine the association and dissociation rate constants as well as the equilibrium dissociation constant.

[5] = molecular target: T2, recombinant soluble cynomolgus TREM2 …; assay: Octet BLI, antibody on anti-human Fc sensor, 25 C
Experimental: as §3

[6] = molecular target: T3, soluble human TREM2 protein (TREM2 …); assay: ELISA, hybridoma supernatant on captured biotinylated TREM2 ECD-Fc
Experimental: Exhausted hybridoma supernatants were tested for binding to human TREM2 by ELISA. Briefly, neutravidin plates were generated by incubating a 384 well Corning Assay Plate 3702 with neutravidin (Thermo 3100B) at 10 μg/mL (40 μL/well) in 1× PBS at 4° C. overnight. The plates were washed with 1× PBS using a Biotek plate washer and then blocked with 1% milk/1× PBS (90 μL/well) at room temperature (RT) for 30 minutes. The plates were then washed again with 1× PBS using the plate washer. […] The plates were then incubated at RT for 1 hour to immobilize the TREM2 protein to the wells of the plates. Following the incubation, the plates were again washed with 1× PBS using the plate washer. 10 μL of each hybridoma supernatant to be tested and 40 μL of 1% milk/1× PBS (1:5 dilution) were added to each well of the plates and incubated at RT for 1 hour. Again, the plates were washed with 1× PBS using the plate washer. […] After the plates were washed with 1× PBS using the plate washer, 40 μL/well of TMB substrate (Neogen, lot #150114) was added to the plates and the plates were incubated at RT for 30 minutes. The reaction was quenched with 1N hydrochloric acid (40 uL/well) following the incubation period. OD readings at 450 nm were obtained with a plate reader.

[7] = molecular target: T1, recombinant soluble human TREM2 protein …; assay: Octet BLI binning; competitor: load Ab 4C5
Experimental: as §1, §2

[8] = molecular target: T1, recombinant soluble human TREM2 protein …; assay: Octet BLI binning; competitor: load Ab 32E3
Experimental: as §1, §2

[9] = molecular target: T1, recombinant soluble human TREM2 protein …; assay: Octet BLI binning; competitor: load Ab 24G6
Experimental: as §1, §2

human TREM2 on cells [10] = molecular target: T4, human TREM2 on cells; assay: cell-based or functional assay
[11] = molecular target: T1, recombinant soluble human TREM2 protein …; assay: Octet BLI binning; competitor: load Ab 25F12
Experimental: as §1, §2

human TREM2 on cells [12] = molecular target: T4, human TREM2 on cells; assay: cell-based or functional assay; remark: listed apart in the source
[13] = molecular target: T1, recombinant soluble human TREM2 protein …; assay: Octet BLI binning; competitor: load Ab 26C10
Experimental: as §1, §2

[14] = molecular target: T1, recombinant soluble human TREM2 protein …; assay: Octet BLI binning; competitor: load Ab 24F4
Experimental: as §1, §2

[15] = molecular target: T1, recombinant soluble human TREM2 protein …; assay: Octet BLI binning; competitor: load Ab 13E7
Experimental: as §1, §2

[16] = molecular target: T1, recombinant soluble human TREM2 protein …; assay: Octet BLI binning; competitor: load Ab 26A10
Experimental: as §1, §2

[17] = molecular target: T1, recombinant soluble human TREM2 protein …; assay: Octet BLI binning; competitor: load Ab 24A10
Experimental: as §1, §2

[18] = molecular target: T1, recombinant soluble human TREM2 protein …; assay: Octet BLI binning; competitor: load Ab 33B12
Experimental: as §1, §2

[19] = molecular target: T1, recombinant soluble human TREM2 protein …; assay: Octet BLI binning; competitor: load Ab 5E3
Experimental: as §1, §2

[20] = molecular target: T1, recombinant soluble human TREM2 protein …; assay: Octet BLI binning; competitor: load Ab 16B8
Experimental: as §1, §2

[21] = molecular target: T1, recombinant soluble human TREM2 protein …; assay: Octet BLI binning; competitor: load Ab 6E7
Experimental: as §1, §2

Binder	sandwich binding signal [1]	sandwich binding signal [2]	sandwich binding signal [3]	Kd [4] [nM]	Kd [5] [nM]	OD 450 [6] [OD450]	sandwich binding signal [7]	sandwich binding signal [8]	sandwich binding signal [9]	pSyk EC50 (human TREM2 on cells [10]) [nM]	sandwich binding signal [11]	Emax (% maximum activation compared to RnD antibody) (human TREM2 on cells [12]) [%]	pSyk EC50, differentiated THP-1 cells (human TREM2 on cells [12])	sandwich binding signal [13]	sandwich binding signal [14]	sandwich binding signal [15]	sandwich binding signal [16]	sandwich binding signal [17]	sandwich binding signal [18]	sandwich binding signal [19]	further results
4G10 (antibody, human IgG2, V domains shown, human IgG2 from hybridoma) VH: EVQLVQSGAEVKKPGESLKISCKGSGYSFPSYWIAWVRQMPGKGLEWMGIIYPGDSDTRYSPSFQGQVTISADKSISTAFLKWSSLKASDTAMYFCARQGIEVTGTGGLDVWGQGTTVTVSS VL: DIQMTQSPSSLSASVGDRVTITCRASQGIRNDLGWYQQKPGNAPKRLIYAASSLPSGVPSRFSGSGSGPEFTLTISSLQPEDFATYYCLQHNSYPWTFGQGTKVEIT	-0.019	0.18	-0.026	3.3	1.7	3.17	-0.018	-0.029	0.184	0.47	0.199	236	0.579 nM								
32E3 (antibody, human IgG2, V domains shown, human IgG2 from hybridoma) VH: EVQLVQSGAEVKKPGESLKISCKGSGYSFTSYWIGWVRQMPGKGLEWMGIIYPGDSDTRYSPSFQGQVTISADKSISTAYLQWSTLKASDTAIYYCARHDIIPAAPGAFDIWGQGTMVTVSS VL: EFVLTQSPGTLSLSPGERATLSCRASQIISSNYLAWYQQKPGQAPRLLIYSASSRATGIPDRFSGSGSGTDFTLTISRLEPEDFAVYYCQQFDSSPITFGRGTRLDIK	-0.023	0.143	-0.02			1.41	-0.016	-0.01	0.126	1.2	0.154	197	1.25 nM	0.141	-0.021	-0.027	0.157	0.162	0.132	0.176	sandwich binding signal [20]: 0.12; sandwich binding signal [21]: -0.024

Further lines, with some results ahead:

sandwich binding signal [1]	sandwich binding signal [2]	sandwich binding signal [3]	Kd [4] [nM]	Kd [5] [nM]	OD 450 [6] [OD450]	sandwich binding signal [7]	sandwich binding signal [8]	sandwich binding signal [9]	pSyk EC50 (human TREM2 on cells [10]) [nM]	sandwich binding signal [11]	Emax (% maximum activation compared to RnD antibody) (human TREM2 on cells [12]) [%]	pSyk EC50, differentiated THP-1 cells (human TREM2 on cells [12])	sandwich binding signal [13]	sandwich binding signal [14]	sandwich binding signal [15]	sandwich binding signal [16]	sandwich binding signal [17]	sandwich binding signal [18]	sandwich binding signal [19]	Binder	further results
0.275	-0.008	0.334			1.48	0.368	0.411	0.399	1.4	0.366	207	77.8 pM	-0.003	0.477	0.294	0.009	0.49	-0.009	-0.014	26F2 (antibody, V domains shown, human IgG2 from hybridoma) VH: EVQLVESGGALVQPGGSLRLSCAASGFTFSSFGMSWVRQAPGKGLEWISYISSSSFTIYYADSVKGRFTISRDNAKNSFYLQMNSLRDEDTAVYFCAREGGITMVRGVSSYGMDVWGQGTTVTVSS VL: not shown	sandwich binding signal [20]: -0.003; sandwich binding signal [21]: 0.523
-0.005	0.31	-0.011	3.1	3.6	3.62	-0.014	-0.01	0.268	0.18	0.265	265	1.72 nM								4C5 (antibody, V domains shown, human IgG2 from hybridoma) VH: EVQLVQSGAEVKKPGESLKISCKGSGHSFTNYWIAWVRQMPGKGLEWMGIIYPGDSDTRYSPSFQGQVTISADKSISTAYLQWSSLKASDTAVYFCARQRTFYYDSSGYFDYWGQGTLVTVSS VL: DIQMTQSPSSVSASVGDRVTITCRASQGISNWLAWYQQKPGKAPKLLIYAASSLQVGVPLRFSGSGSGTDFTLTISSLQPEDFATYYCQQADSFPRNFGQGTKLEIK	

From patent US20220204611A1 (Amgen, published 2022)
